The test addresses amphiphilic diblock polypeptide (ADP) derived from elastin-mimetic sequences, unlabeled. As to the kind of experiment: dynamic light scattering.

B1: amphiphilic diblock polypeptide (ADP) derived from elastin-mimetic sequences, unlabeled (protein)
chain: VPGVGVPGEGVPGVGVPGEGVPGVGVPGVGVPGEGVPGVGVPGEGVPGVGVPGVGVPGEGVPGVGVPGEGVPGVGVPGVGVPGEGVPGVGVPGEGVPGVGVPGVGVPGEGVPGVGVPGEGVPGVGVPGVGVPGEGVPGVGVPGEGVPGVGVPGVGVPGEGVPGVGVPGEGVPGVGVPGVGVPGEGVPGVGVPGEGVPGVGVPGVGVPGEGVPGVGVPGEGVPGVGVPGVGVPGEGVPGVGVPGEGVPGVGIPGVGIPGVGVPGYGIPGVGIPGVGIPGVGIPGVGVPGYGIPGVGIPGVGIPGVGIPGVGVPGYGIPGVGIPGVGIPGVGIPGVGVPGYGIPGVGIPGVGIPGVGIPGVGVPGYGIPGVGIPGVGIPGVGIPGVGVPGYGIPGVGIPGVGIPGVGIPGVGVPGYGIPGVGIPGVGIPGVGIPGVGVPGYGIPGVGIPGVGIPGVGIPGVGVPGYGIPGVGIPGVGIPGVGIPGVGVPGYGIPGVGIPGVGIPGVGIPGVGVPGYGIPGVGIPGVGIPGVGIPGVGVPGYGIPGVGIPGVGIPGVGIPGVGVPGYGIPGVGIPGVGIPGVGIPGVGVPGYGIPGVGIPGVGIPGVGIPGVGVPGYGIPGVGIPGVG
modifications: not checked
On to B1, for which the stoichiometry N (chains per micelle) turned out to be 106.

Source of the values: paper PMC3404820.
